Measurements from patent publication US20160075789A1 (EDIMER PHARMACEUTICALS, published 2016).

Target: T1, Fc-APRIL (UniProt O75888 105-250, limits assumed)
T1 construct: also called control protein Fc-APRIL; not shown: Fc portion; not described for this construct
T1 sequence (looked up): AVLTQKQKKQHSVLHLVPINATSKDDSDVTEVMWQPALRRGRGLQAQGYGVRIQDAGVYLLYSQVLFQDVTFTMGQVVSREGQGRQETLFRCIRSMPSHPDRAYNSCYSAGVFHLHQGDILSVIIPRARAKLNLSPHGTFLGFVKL
Assay: western blot under reducing conditions

B1: mAbEDA1-EctoD3 (antibody, mouse IgG1, V domains shown)
VH: QVQLHQSGAELARPGASVKLSCKASGYTFTSYGISWVKQRTGQGLEWIGEVYPRSGDTYYHDYFEGKATLTADKSSSTAYMELRSLTSEDSAVYFCARGDYADVWGTGTTVTVSS
VL: DIVLTQSPASLAVSLGQRATISCRASKSVSTFGNSYMLWYQQKPGQPPKLLIYLASNLESGVPARFSGSGSGTDFTLNIHPVEEEDAATYYCQNSRELPYTFGGGTKLEIKR
notes: also called EctoD3-biotin; EctoD3-biot
binding result: no binding
